Assay results published in paper PMC7367391, “EtMIC3 and its receptors BAG1 and ENDOUL are essential for site-specific invasion of Eimeria tenella in chickens” (Veterinary Research, 2020).

T1: pGEX-6P-1-EtMIC3 recombinant protein (E. tenella, UniProt B6VCV4 1-988)
T1 sequence (looked up): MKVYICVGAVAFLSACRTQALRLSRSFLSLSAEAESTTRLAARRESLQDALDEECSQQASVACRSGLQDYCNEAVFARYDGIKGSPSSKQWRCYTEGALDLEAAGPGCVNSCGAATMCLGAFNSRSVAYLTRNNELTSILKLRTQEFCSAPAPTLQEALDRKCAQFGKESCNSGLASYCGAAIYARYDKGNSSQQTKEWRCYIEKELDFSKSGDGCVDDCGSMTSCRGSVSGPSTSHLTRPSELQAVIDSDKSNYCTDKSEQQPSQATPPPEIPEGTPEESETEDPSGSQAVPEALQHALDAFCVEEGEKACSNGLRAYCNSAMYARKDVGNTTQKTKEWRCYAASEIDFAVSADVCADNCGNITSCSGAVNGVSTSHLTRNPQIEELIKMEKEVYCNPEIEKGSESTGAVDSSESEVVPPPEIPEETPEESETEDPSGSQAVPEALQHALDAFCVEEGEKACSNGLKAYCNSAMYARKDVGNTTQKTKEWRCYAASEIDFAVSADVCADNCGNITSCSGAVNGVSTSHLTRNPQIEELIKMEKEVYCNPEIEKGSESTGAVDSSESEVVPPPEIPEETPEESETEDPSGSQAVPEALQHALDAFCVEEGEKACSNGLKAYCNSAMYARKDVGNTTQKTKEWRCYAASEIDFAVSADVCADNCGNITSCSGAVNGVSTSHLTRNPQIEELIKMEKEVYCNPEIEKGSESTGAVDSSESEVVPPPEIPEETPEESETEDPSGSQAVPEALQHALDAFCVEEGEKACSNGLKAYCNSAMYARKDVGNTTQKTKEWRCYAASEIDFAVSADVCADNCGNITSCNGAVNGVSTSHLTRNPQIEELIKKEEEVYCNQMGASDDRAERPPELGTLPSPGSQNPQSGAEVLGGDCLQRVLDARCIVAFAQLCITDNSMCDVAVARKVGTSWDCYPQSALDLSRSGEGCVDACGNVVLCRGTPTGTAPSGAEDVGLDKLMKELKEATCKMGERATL

B1: recombinant ENDOUL expressed from pET-32a-ENDOUL (natural protein, chicken, UniProt A0A8V0YKR0 1-289, looked up)
chain: MADRKALNHELSKLFNEMWDMDVNRFTPGKDYAIELQGKADAVLQGDSVVQDSAARHLFHYVNEERLKNIKTFATFISLLDNYETSTGVEEIVTPEEIAENNCFLDAILMTGVMKLAHEYLLKKKLAKPNLADFKYQLYDIWFQLYPRKEGDRPDSCGFEHVFVGETRRGKQILGLHNWVQFYLQEKHKQIDYKGYIARKNKTRPDRDDQVLSIQFSWKGSVKPIGSTFIGVSPEFEFALYTVIFLLSEERVTRKTVKIEEYELQIVVCRHGRHIGTAYPVLLNTSNED
B2: recombinant BAG1 expressed from pET-32a-BAG1 (natural protein, chicken, UniProt F1NPL0 1-209, looked up)
chain: MAVPGAPVSVTVTYSNEKHNIQVASQQEDGEPTLQDMAVLIEQVTGVPVSFQKLIYKGKSLKELEQPLSALGVKNGCKVMLIGKRNSPEEEAELKKLKDLEKSVEQIANKLEEVNKEFTSIQKGFLAKDLQAEALKQLDKRIKGTAEQFMKILEQVDAINLPENFNDCRLKKKGLVKRVQAFLAQCDTVEGNIGQEMDKLQSKNLALAE

Molecular target: T1, pGEX-6P-1-EtMIC3 recombinant protein
Experiment: cell-based or functional assay

Binder | oocyst decrease ratio (%) in chickens challenged with 5 × 10^4 E. tenella sporulated oocysts and injected intravenously with anti-ENDOUL serum every day for 7 days | oocyst decrease ratio (%) in chickens challenged with 5 × 10^4 E. tenella sporulated oocysts and injected intravenously with anti-BAG1 serum every day for 7 days
B1 | 5.07% | 
B2 |  | 3.63%
